Substrate in this data set: [H][C@@]12CC=C3C[C@@H](OS(=O)(=O)O)CC[C@]3(C)[C@@]1([H])CC[C@]1(C)C(=O)CC[C@@]21[H]
Briefly: TP_TRANSPORTER: uptake in membrane vesicles from MRP1-expressing Sf9 cells. In kind it is functional, cell membranes, Membrane vesicle.

B1: Multidrug resistance-associated protein 1 (Homo sapiens) (protein)
chain: MALRGFCSADGSDPLWDWNVTWNTSNPDFTKCFQNTVLVWVPCFYLWACFPFYFLYLSRHDRGYIQMTPLNKTKTALGFLLWIVCWADLFYSFWERSRGIFLAPVFLVSPTLLGITMLLATFLIQLERRKGVQSSGIMLTFWLVALVCALAILRSKIMTALKEDAQVDLFRDITFYVYFSLLLIQLVLSCFSDRSPLFSETIHDPNPCPESSASFLSRITFWWITGLIVRGYRQPLEGSDLWSLNKEDTSEQVVPVLVKNWKKECAKTRKQPVKVVYSSKDPAQPKESSKVDANEEVEALIVKSPQKEWNPSLFKVLYKTFGPYFLMSFFFKAIHDLMMFSGPQILKLLIKFVNDTKAPDWQGYFYTVLLFVTACLQTLVLHQYFHICFVSGMRIKTAVIGAVYRKALVITNSARKSSTVGEIVNLMSVDAQRFMDLATYINMIWSAPLQVILALYLLWLNLGPSVLAGVAVMVLMVPVNAVMAMKTKTYQVAHMKSKDNRIKLMNEILNGIKVLKLYAWELAFKDKVLAIRQEELKVLKKSAYLSAVGTFTWVCTPFLVALCTFAVYVTIDENNILDAQTAFVSLALFNILRFPLNILPMVISSIVQASVSLKRLRIFLSHEELEPDSIERRPVKDGGGTNSITVRNATFTWARSDPPTLNGITFSIPEGALVAVVGQVGCGKSSLLSALLAEMDKVEGHVAIKGSVAYVPQQAWIQNDSLRENILFGCQLEEPYYRSVIQACALLPDLEILPSGDRTEIGEKGVNLSGGQKQRVSLARAVYSNADIYLFDDPLSAVDAHVGKHIFENVIGPKGMLKNKTRILVTHSMSYLPQVDVIIVMSGGKISEMGSYQELLARDGAFAEFLRTYASTEQEQDAEENGVTGVSGPGKEAKQMENGMLVTDSAGKQLQRQLSSSSSYSGDISRHHNSTAELQKAEAKKEETWKLMEADKAQTGQVKLSVYWDYMKAIGLFISFLSIFLFMCNHVSALASNYWLSLWTDDPIVNGTQEHTKVRLSVYGALGISQGIAVFGYSMAVSIGGILASRCLHVDLLHSILRSPMSFFERTPSGNLVNRFSKELDTVDSMIPEVIKMFMGSLFNVIGACIVILLATPIAAIIIPPLGLIYFFVQRFYVASSRQLKRLESVSRSPVYSHFNETLLGVSVIRAFEEQERFIHQSDLKVDENQKAYYPSIVANRWLAVRLECVGNCIVLFAALFAVISRHSLSAGLVGLSVSYSLQVTTYLNWLVRMSSEMETNIVAVERLKEYSETEKEAPWQIQETAPPSSWPQVGRVEFRNYCLRYREDLDFVLRHINVTINGGEKVGIVGRTGAGKSSLTLGLFRINESAEGEIIIDGINIAKIGLHDLRFKITIIPQDPVLFSGSLRMNLDPFSQYSDEEVWTSLELAHLKDFVSALPDKLDHECAEGGENLSVGQRQLVCLARALLRKTKILVLDEATAAVDLETDDLIQSTIRTQFEDCTVLTIAHRLNTIMDYTRVIVLDKGEIQEYGAPSDLLQQRGLFYSMAKDAGLV
As to B1, the Km (usually the concentration of substrate that gives half-maximal velocity) turned out to be 5 µM.

(Values after ChEMBL document CHEMBL2073968, “Multidrug resistance protein 4 (MRP4/ABCC4) mediates efflux of bimane-glutathione” (Int J Biochem Cell Biol, 2004).)
